# Data taken from the DeepSol protein solubility set.
# Assay: soluble on expression in E. coli; label from the status in PepcDB or PDB records
row,Sequence,soluble on expression in E. coli
1,MIIKPAGDSAFLISFGDEISEEINDRVHSLAKAIEKESPEWLVELVPAYSSLLVIYDPLKASYEEVESYLKRISAREVERIKGKTIEIPVAYGGEFGPDIEFVAQYNGLSVDDVIEIHSKPLYRVYFLGFLPGFAYLGGMDERIATPRLEKPRLKVPAGSVGIAGKQTGWYAIESPGGWRIIGRIPLRTFNPGKVPPSIVLPGDYVKFVPIDEKEFWEIYGREWE,soluble
2,MEFYSQSRFSNWVNKIAETELDEDNPETFAVFDQMLEDVIIACLSIIRAVKEREIRKADAVKEVEKILGLIPNHDFGDELKNELFQFTLESIKAVLLSFRLYFEGKISKKSFEALLKDALKKEQSGDYEGSLNAVAQMGAKVIKGEQLPELDIPEDSAVISWIDGIDAISSVLELSKIDAPTE,not soluble
3,MIPYRQLVRMSHLAARFVGGADVHVVDPLVDLRNVFEQTDQLKIALECRNLTVDVEKVKNEYDEWFETYQKWKQADKESISQLKKELRAKKDGLLNALALPNLVHHAGKKQTPLLKPSKHAQYLAQQGLMRIDKQNHVVHLVGYPVVVQKMIREQLVDLFPGCQPISPSYFARAAILEALNIDQSTCIPFTDDSSHFPLTYLVGNSLPAITSPFLKTSFGEKNEWPISVQCTGASYTEKKNQVDLGNARQRMKHCALWMSKSAEELEGIINDANVRVGAYLDEGLDLEVKVREVRGSELKNYESQAFVVENRGLSLSRISRIGDYVSKRLNIQYSGSPATEKSEKSDGFVQMVYVETDIDRILARLVDDLIEGKEPPKYIRDAIKKSF,not soluble
4,LETSWIKPGQASWEWWNDAAPYGPDVNFVSGYNLETYKYYIDFASKYGIRYIIMDEGWAKSTRDPYTPNAKVDVHELIRYAEKKNVGIVLWLTWLTVENNMDLFKTFSEWGVKGVKIDFMDRSDQWMMNFYERVAAEAAKYKLFVDFHGSVSPKGLEYKYPNVLSYEGVRGMEQMGGATPDNSIFMPFMRNAVGAMD,not soluble
5,MGSDKIHHHHHHMLSVPPDKSITHRALILSALAETESTLYNLLRCLDTERTHDILEKLGTRFEGDWEKMKVFPKPFAEPIEPLFCGNSGTTTRLMSGVLASYEMFTVLYGDPSLSRRPMRRVIEPLEMMGARFMARQNNYLPMAIKGNHLSGISYKTPVASAQVKSAVLLAGLRASGRTIVIEPAKSRDHTERMLKNLGVPVEVEGTRVVLEPATFRGFTMKVPGDISSAAFFVVLGAIHPNARITVTDVGLNPTRTGLLEVMKLMGANLEWEITEENLEPIGTVRVETSPNLKGVVVPEHLVPLMIDELPLVALLGVFAEGETVVRNAEELRKKESDRIRVLVENFKRLGVEIEEFKDGFKIVGKQSIKGGSVDPEGDHRMAMLFSIAGLVSEEGVDVKDHECVAVSFPNFYELLERVVIS,not soluble
6,MDLFIKKRIKAIQKGDQNAYADLVDLYKDKIYRLCYRMLGNRHEAEDAAQEAFIRAYIHIDTYNPEMKFSTWLYRIATNLTIDKLRKRKPDVYLDEEVGGTDGLTMQAQLPSREASPEEAVESLELQETVQRAIEQLPEKYRSVIVLKYMEDLSLQEISEILGLPVGTVKTRLHRGREALRRQLGHL,not soluble
7,SNAMNDIVASTQLPNTIKTITNDLRKLGLKKGMTVIVHSSLSSIGWISGGAVAVVEALMEVITEEGTIIMPTQSSDLSDPKHWSRPPVPEEWWQIIRDNVPAFEPHITPTRAMGKVVECFRTYPNVVRSNHPLGSFAAWGRHAEEITVNQSLSMSLGEESPLRKIYDLDGYILLIGVGYDSNTSVALSEVRSGACELIKVGAPIIENGERVWKEFVDMDYDSDKFVEIGVEFEQKGTVTMGKIGNAKCRLMKQRDIVDFGTEWFRKKN,soluble
8,MGSDKIHHHHHHMSSHQLPFQRSDEEVQASSGDSLTIARKQEVVQLLKQISDRTLKNDIISLGMVRNLRIVDDYIYLRLYIGSHQHQLETEIQTVLSSLTWSKKTYIQLCTIPGVRTTLAVSSGKGGVGKSTTAVNLAAALQLAGAKVGLLDADVYGPNVPQMLGLGKSEVKVIDTPKGQRFVPLEAHGIKVMSVGLLAEADHPLAWRGPVLHKIITQFIHEVEWGELDYLLIDLPPGTGDAQITIVQESPICGVILVTTPQNVAISDVRRSVYMFRQVGVPVIEIIENMSYFIGNGGEKISIFGSGGGQKLVEELKAPLLGQIPIDPLICNGGDVGEPLMLVDPNSKASQVFVQIAGALNATFSGSM,not soluble
9,MEDDDLLPLSALQHYLYCPRQCALIHLEQQWEDNAQTAEGRLLHERADKPAMETRRGVRTASAMALASPRLGIAGVADIVEFHDWSDGERAYPVEYKRGRPKAHRADEVQLCAQALCLEDMLGAAIPEGALYYGKTRRRRPVAFDNALRRLTLETIAAARAMFDSRQTPRMGYEARRCDACSLLERCQPRLLDRAQSVDQWLKQQWDALEHHHHHH,not soluble
10,MGSDKIHHHHHHMSAALSHWRRWPSVANYGKKRFDIHQSSLKKRQGLMTPHFFGFGSLVNTATHVYGNTRPARLEGWRRTWVRTPDRSMAFLSVTPAPGHVIEGLLAAVPNGDWAALDERETGYVRVDVTPQVAHDMAPAPQISLYQVPEESHDRNARDHKILLSYLDVVLRGYREVFGDTGAEAFMATTDGWDTPILNDRATPYYPRHQVMTPDEHALHDALIAEAGAQVLAGGE,not soluble
11,MDQVVVFQKMFEQVRKEQNFSWFYSELKHHRIAHYIYYLATDNIRIITHDDTVLLLRGTRNLLKVSTTKNPAKIKEAALLHICGKSTFREYCSTLAGAGVFRWVTDVNHNKRSYYAIDNTLLYIEDVENNKPLI,not soluble
12,MSDEISILIQDRKTGQRRNLTLNINITGNIEDLTKDVEKLTEIPSDELEVVFCGKKLSKSTIMRDLSLTPATQIMLLRPKFNSHNENGATTAKITTDSSILGSFYVWCKNCDDVKRGKLRVYCQKCSSTSVLVKSEPQNWSDVLKSKRIPAVCEECCTPGLFAEFKFKCLACNDPAAALTHVRGNWQMTECCVCDGKEKVIFDLGCNHITCQFCFRDYLLSQLERFGFVNQPPHGFTIFCPYPGCNRVVQDVHHFHIMGQTSYSEYQRKATERLIAVDDKGVTCPNVSCGQSFFWEPYDDDGRSQCPDCFFSFCRKCFERNCVCQSEDDLTRTTIDATTRRCPKCHVATERNGGCAHIHCTSCGMDWCFKCKTEWKEECQWDHWFN,not soluble
13,SGLYRIRVSTGASLYAGSNNQVQLWLVGQHGEAALGKRLWPARGKETELKVEVPEYLGPLLFVKLRKRHLLKDDAWFCNWISVQGPGAGDEVRFPCYRWVEGNGVLSLPEGTGRTVGEDPQGLFQKHREEELEERRKLYRWGNWKDGLILNMAGAKLYDLPVDERFLEDKRVDFEVSLAKGLADLAIKDSLNVLTCWKDLDDFNRIFWCGQSKLAERVRDSWKEDALFGYQFLNGANPVVLRRSAHLPARLVFPPGMEELQAQLEKELEGGTLFEADFSLLDGIKANVILCSQQHLAAPLVMLKLQPDGKLLPMVIQLQLPRTGSPPPPLFLPTDPPMAWLLAKCWVRSSDFQLHELQSHLLRGHLMAEVIVVATMRCLPSIHPIFKLIIPHLRYTLEINVRARTGLVSDMGIFDQIMSTGGGGHVQLLKQAGAFLTYSSFCPPDDLADRGLLGVKSSFYAQDALRLWEIIYRYVEGIVSLHYKTDVAVKDDPELQTWCREITEIGLQGAQDRGFPVSLQARDQVCHFVTMCIFTCTGQHASVHLGQLDWYSWVPNAPCTMRLPPPTTKDATLETVMATLPNFHQASLQMSITWQLGRRQPVMVAVGQHEEEYFSGPEPKAVLKKFREELAALDKEIEIRNAKLDMPYEYLRPSVVENSVAI,soluble
14,MSLKAAQYAGNKSFNVVDGAKVPPAEGEVCLQVGYTGICGTDMHIYHGVMDQRVSIPQIIGHEMSGTVVEVGAGVTDYTVGDRVVVRPLDYCGDCPACNAGHSHVCHNLKFMGIDSPGAFQSYWTVKARTLHALPDNVSLKQGALIEPLSVACHDVARTRLQAGEKALVIGGGPIGQLVALVAKSVGAEVMISEVSEARLKFAAERGIKTVNPVTDDIEAVVKEWTGGKGADAVFEVSGVAAAVETMTKVAAVRGRICMVAIHSQKPQVDLFQFFWKELELLGARVYESADFEHAIELVASGKIDVDSFISSVTSLNDIGTAFASMDNNPAGMKALVECNEGHHHHHH,soluble
15,MMKALILAGGSGERFWPLSTPETPKQFLKLFGNKSLMRWTFERVLEEMDPKDVIVVTHKDYVERTKKELPELPDENIIAEPMKKNTAPACFIGTKLADDDEPVLVLPADHRIPDTKKFWKTVKKALDALEKYDGLFTFGIVPTRPETGYGYIEIGEELEEGVHKVAQFREKPDLETAKKFVESGRFLWNSGMFLWKAREFIEEVKVCEPSIYENLKDVDPRNFEELKKAYEKVPSISVDYAVMEKSKKVRVVKADFEWSDVGNWSSVREIEGYTEESDEVILVDSDRVFVKTHNKPIAVVGLSDVIVIDTPNGILICKEEYAQKVREVVKKLFRTS,soluble
16,MGHHHHHHSHMIMQEIFLCSISNVRSGDCKEDCAYCTQSSHHQGAIKRYKFKDEKVVLQEARALRQLGALGFCLVTSGRELDDEKCEYIAKLAKAINQEELGLHLIACCGRADLEQLEFLRDAGIHSYNHNLETSQNFFPKICSTHTWEERFITCENALRAGLGLCSGGIFGLNESWEDRIEMLRALASLSPHTTPINFFIKNPVLPIDAETLSADEALECVLLAKEFLPNARLMVAGGREVVFKDNDKKEAKLFEYGINAVVLGDYLTTKGKAPKKDIEKLLSYGLTMATSCH,soluble
17,MTDESDSTAHVSCIIPVYNDSVGIKNTLRSVVGQEYHGYDVYVVDNGSTDGSRRRVRNCAAESDDIQLLVEDEVQGSYAARKTGVQNAESDVLAFLDADETVDEDWLETALGAMQEQDVDYLGCNVELTCPEDTLVGRYNARTGFPVEEYLEDQNYAPTCALLVRRKVFEDVGPFDARLISGGDREFGDRVHDAGYEQGYAENATVYHPARTSLESLAKKNFRVGRGFCQKQRYYPERYGKPGIPPTPSGPSGGDDGDEPDASLTRLAFTLLSIAMLACRGVGYYYEFVVGEENDDIPAPTSLEHHHHHH,not soluble
18,MGSDKIHHHHHHMLQAFATQYIVESLGCETEIIDYTADRFNKHYPLDLGLFRFLIDAYQEKKKKAARTKFNDATFQNNIAKRKTSYVEFIHRRLHNIKEVSGFSNLCKLGSEYDAVLIGSDQKWHPGFSFGVDSSFRFVPKSVRTISYATSLGVSEYPKSYWRTSRKAWSRIDYLSVREKTGADIISKVCDNNIHAEVVVDPTYLISCEDWKKIFPVEKKFEDKYIFCYFLGNDEESKKCARRYANLKGLKLVSVVSNESYSEIDQEYADFLMTGESPDSFVNWIRGAECVFTDSFHGTAFSIMNEKQIYVFYRKNTGVKLQRHSRIDDILSLWEIKYRLITDKHREWDSYQEQPIDYTLVTQKVQSERERSMKFLKAALTF,not soluble
19,MDYTKYLAGRANWIKGSALADVMKKASELQKKGVKLISLAAGDPDPELIPRAVLGEIAKEVLEKEPKSVMYTPANGIPELREELAAFLKKYDHLEVSPENIVITIGGTGALDLLGRVLIDPGDVVITENPSYINTLLAFEQLGAKIEGVPVDNDGMRVDLLEEKIKELKAKGQKVKLIYTIPTGQNPMGVTMSMERRKALLEIASKYDLLIIEDTAYNFMRYEGGDIVPLKALDNEGRVIVAGTLSKVLGTGFRIGWIIAEGEILKKVLMQKQPIDFCAPAISQYIALEYLKRGYFEKYHLEGALLGYKEKRDIMLKALENHLPNAEFTKPIAGMFVMFFLPEGADGISFANELMEREGVVVVPGKPFYTDESGKNAIRLNFSRPSKEEIPIGIKKLAKLYKEKFGE,soluble
